Laboratory results published in article PMC5199193, “Structure of the transporter associated with antigen processing trapped by herpes simplex virus” (eLife, 2016).

Target: T1, transporter associated with antigen processing (TAP), heterodimer of TAP1 and TAP2 (human, UniProt Q03518 1-748; Q03519 1-686)
T1 construct: TAP1, human; TMD0 is in the construct (no density seen for it); TAP2, human; model holds residues 130-681; also called human TAP; source: lysed cells incubated with purified ICP47, solubilised in DDM, purified (IgG Sepharose, Superose 6); not shown: Protein A, C-terminal, cleaved
T1 sequence 1: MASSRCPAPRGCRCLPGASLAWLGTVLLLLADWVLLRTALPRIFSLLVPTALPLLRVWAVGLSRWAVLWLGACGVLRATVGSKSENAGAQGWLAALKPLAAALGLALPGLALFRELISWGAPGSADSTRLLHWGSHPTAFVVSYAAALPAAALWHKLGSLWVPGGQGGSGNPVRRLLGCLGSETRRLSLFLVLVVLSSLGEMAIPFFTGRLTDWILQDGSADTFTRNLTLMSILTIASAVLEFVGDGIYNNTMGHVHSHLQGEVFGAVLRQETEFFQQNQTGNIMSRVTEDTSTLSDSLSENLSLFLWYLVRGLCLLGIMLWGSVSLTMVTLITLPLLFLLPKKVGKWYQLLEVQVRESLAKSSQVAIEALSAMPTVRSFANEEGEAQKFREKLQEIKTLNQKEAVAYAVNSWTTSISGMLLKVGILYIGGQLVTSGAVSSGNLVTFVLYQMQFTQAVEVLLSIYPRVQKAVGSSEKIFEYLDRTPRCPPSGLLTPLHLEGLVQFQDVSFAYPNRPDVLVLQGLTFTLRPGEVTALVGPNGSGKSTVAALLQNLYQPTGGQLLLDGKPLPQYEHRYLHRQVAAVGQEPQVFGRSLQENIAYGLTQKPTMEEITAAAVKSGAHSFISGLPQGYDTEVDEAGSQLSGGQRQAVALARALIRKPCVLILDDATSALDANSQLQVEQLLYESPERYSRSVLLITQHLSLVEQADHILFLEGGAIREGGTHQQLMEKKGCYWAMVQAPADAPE
T1 sequence 2: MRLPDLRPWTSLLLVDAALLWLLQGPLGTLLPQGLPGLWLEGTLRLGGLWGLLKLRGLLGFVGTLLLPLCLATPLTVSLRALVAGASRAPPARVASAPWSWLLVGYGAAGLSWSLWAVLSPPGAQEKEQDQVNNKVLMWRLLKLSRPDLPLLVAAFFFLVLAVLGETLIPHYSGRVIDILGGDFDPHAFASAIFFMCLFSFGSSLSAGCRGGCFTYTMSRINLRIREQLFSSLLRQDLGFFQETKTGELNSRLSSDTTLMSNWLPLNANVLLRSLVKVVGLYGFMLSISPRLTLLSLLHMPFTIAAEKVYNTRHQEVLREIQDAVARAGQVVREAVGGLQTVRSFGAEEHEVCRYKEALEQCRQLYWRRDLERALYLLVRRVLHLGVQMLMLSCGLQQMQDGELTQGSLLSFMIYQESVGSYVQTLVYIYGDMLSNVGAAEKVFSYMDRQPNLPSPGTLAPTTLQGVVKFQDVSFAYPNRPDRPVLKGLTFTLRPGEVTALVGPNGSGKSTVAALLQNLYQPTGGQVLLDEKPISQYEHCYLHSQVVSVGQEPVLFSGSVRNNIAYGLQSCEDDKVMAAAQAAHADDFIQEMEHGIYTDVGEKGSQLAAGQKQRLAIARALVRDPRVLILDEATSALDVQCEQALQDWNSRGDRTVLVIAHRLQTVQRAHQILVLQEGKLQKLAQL
Test: cryo-EM structure; purified TAP/ICP47 complex (2 mg/ml) in 20 mM Hepes pH 7.4, 150 mM NaCl, 2 mM TCEP, 1 mM DDM, 1 mM C12E8; complex formed by incubating lysed Pichia cells co-expressing TAP1 and TAP2 with purified ICP47; 4.0 Å
Settings: both partners purified

B1: ICP47 of herpes simplex virus 1 (natural protein)
chain: MSWALEMADTFLDTMRVGPRTYADVRDEINKRGREDREAARTAVHDPERPLLRSPGLLPEIAPNASLGVAHRRTGGTVTDSPRNPVTR
notes: ICP47, HSV-1; the N-terminal 55 residues are ordered and the C-terminal 33 residues have no density (88 residues together); also called HSV-1 ICP47; source: E. coli, purified via the GST tag
binding result: binds
